Data from the supplement of paper PMC11502859.

What follows are substances tested on HEK293T (assay: median enrichment of reporter reads in eGFP-reduced (low/intermediate) vs eGFP-high sorted cells (eGFP-extension fusion abundance) (ratio); higher = stronger loss of eGFP-fusion protein abundance (more destabilising extension)).
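Also: lentiviral eGFP-IRES-mCherry reporter pool sorted by FACS 96 h post-transduction, gated on mCherry-high cells, Illumina read counts normalized per million, median across four biological replicates.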

| Substance | median enrichment |
| --- | --- |
| RNHKEPSVPVHEISLLLENRNIDYQITMQLKPYCFFEQLFIPVIKTDCAEYSKRSEIGVYNYIFSDAIY [RPE] | 8.87 |
| RNKKFWVLSS [RGCC] | 1.68 |
| RNLNGHYKLSNST [ARMC4] | 1.99 |
| RNQVASCPLLRGNPRPLASLPTYKALSQGIAGPRCLDPGCASPSLCSPWKGR [HSPBP1] | 7.21 |
| RNRGLNVFRVRMP [PARD6B] | 4.57 |
| RPCAEALPGFTQLMDSSVLTLSTTPFTSLFDFRSYRHCLR [GINS1] | 7.78 |
| RPETECQPKESSCKTVIYCEYLHHMGSLMVNIFLQSC [TXK] | 12.5 |
| RPGAQPCAAEDSRDWRRPRPATAGARGHLPGLLTLSPHWEWAPRGRASAVAASAPGRAGPPRGPVLVFCRRTQPPPIPDSSLG [TMUB1] | 6.53 |
| RPLLRVCPAPFHQ [DYRK4] | 1.43 |
| RPPAPNSIIYYGAAPPGWPDPWALGLWILVPCLENSPPLAPHCSL [CYTH2] | 8.4 |
| RPPLSPECNKHQIPCVK [POLR2I] | 3.52 |
| RPQMAGTCSSDERVLRRTPPSSVLEAGRLGSRRGQRHLLSVLGCKQLCVSGDTSHHVPGN [AIRE] | 7.82 |
| RPRPGPALPPGAPTCNKCSEAGK [CYBA] | 0.134 |
| RPSGPPLPLGQGNQLLRDFSCLEGAVIAPPHCPTVLLGL [FBXW4] | 4.69 |
| RPSTKGPPSWCSITSFLKGISFFTTLS [FANCE] | 13.8 |
| RPSTVPGP [HYKK] | 0.522 |
| RPWPRAQACLGWALPLTTQGGPGPLGFLPWGQQPPAGLVGSGFLDFLMKRGYL [KCNH4] | 4.41 |
| RQADEGATLTQSPQKAKCDSQVSSLTQR [PCARE] | 0.302 |
| RQEGPSGRDGPGGGQMGRCGRHVIDSTEGLSCVPPTLPWTDSEGPPGTSAKAG [KCNF1] | 5.07 |
| RQEGRPHCFSHPFPLLPMGRGPGCRKSSYLQELHHNLEGSSWSCEFSLYSVTIPDHLIKMLPPSIGFIELVTS [NME1] | 9.63 |
| RQGPPLFWTP [CDHR2] | 1.05 |
| RQGRLRGQAGGQQLQEGSDNSPPAWAHLLLLLLLGSAPQTRLWPPSQCPVTSPE [CRACR2B] | 9.74 |
| RQLQELNSLAPEELAAQEAKLAF [TMEM81] | 0.0302 |
| RQRPPAPALPQPSY [SART1] | 0.558 |

| Substance | median enrichment |
| --- | --- |
| RQRRD [PVR] | 0.306 |
| RQSWCCRPIGRSWKASGCVPAMSWHWQSWRRRRANPRAQRTLRKPAGAESCVGHPTRHPSSLRRPVGRQGSRGFALLLSSRVM [RAB15] | 3.13 |
| RQTSQSSQPGLHPPWLPPAHMAPSTGLQPGAREL [HOOK2] | 11.1 |
| RQWLSCDDRQNGGEICLWEVEP [FBXO45] | 6.14 |
| RRAGGGWWPRRQHTTRLHTCMLSPRGNGLYIAHFTLFRRHFIPALVLLEGLSRQSSSCSASVCDSPPSTPMALSLGDSSSPRK [PRKAB1] | 5.36 |
| RRGEGRPAVDSLILGRSLGCAAISFCECANTKLSRAKL [SLC25A25] | 8.98 |
| RRINLQRSRQDDLAAWGLLSPRNSHVGFPLPGWPLDLSSKPFLTSS [CHI3L2] | 6.12 |
| RRKCLLPW [PKD1L2] | 1.93 |
| RRKEFCKETIRFVKDILHNI [PPP1CB] | 7.66 |
| RRLARKMPRGG [TRAPPC3L] | 5.87 |
| RRLSISRDMVLTQQFPVMAKCSI [IL13RA2] | 6.6 |
| RRPRAPHLSRSLMPQGAQ [SLC44A2] | 1.11 |
| RRPVPR [TBC1D24] | 1.51 |
| RRR [Arg03] | 0.663 |
| RRRR [Arg04] | 0.344 |
| RRRRR [Arg05] | 0.5 |
| RRRRRR [Arg06] | 0.898 |
| RRRRRRGRAAGGTAQATQGRPLRPGGQGGRPASGDRLPPGLWQDVPSEGYFEEPPGPGDREAPVSSMNALPRTQARASGVHSE [MSANTD1] | 0.682 |
| RRRRRRR [Arg07] | 0.889 |
| RRRRRRRR [Arg08] | 1.49 |
| RRRRRRRRR [Arg09] | 1.11 |
| RRRRRRRRRR [Arg10] | 0.77 |
| RRSPVCPVKTEIN [TM9SF2] | 0.793 |
